{"source": "the DeepSol protein solubility set", "data": [{"test": "soluble on expression in E. coli; label from the status in PepcDB or PDB records", "values": [{"sequence": "SDEFDALRIKWATLLTGGPALDPADSDIAARTDKLAQDANDYWEDMDLSSSRTYIWYALRGNGTSDNVNAVYERLRTMALAATTVGSSLYGNADLKEDILDALDWLYVNSYNSTRSRSAYNWWHWQLGIPMSLNDIAVLLYDDISAARMATYMDTIDYFTPSIGLTGANRAWQAIVVGVRAVIVKDAVKLAAARNGLSGTGIFPYATGGDGFYADGSFVQHTTFAYTGGYGSSVLETTANLMYLLSGSTWSVSDPNQSNVWQWIYEAYRPLLYKGAMMDMVRGREISRSYAQDHAVGHGIVASIVRLAQFAPAPHAAAFKQIAKRVIQEDTFSSFYGDVSTDTIRLAKAIVDDPSIAPAAAPNLYKQYAAMDRAVLQRPGFALGLALYSTRISSYESINSENGRGWYTGAGATYLYNQDLAQYSEDYWPTVDAYRIPGTTVASGTPIASGTGTSSWTGGVSLAGQYGASGMDLSYGAYNLSARKSWFMFDDEIVALGSGISSTAGIPIETVVDNRKLNGAGDNAWTANGAALSTGLGVAQTLTGVNWVHLAGNTADGSDIGYYFPGGATLQTKREARTGTWKQINNRPATPSTAVTRNYETMWIDHGTNPSGASYGYVLLPNKTSAQVGAYAADPAIEIVVNTSGVQSVKEKTLGLVGANFWTDTTQTADLITSNKKASVMTREIADERLEASVSDPTQANNGTIAIELARSAEGYSADPGITVTQLAPTIKFTVNVNGAKGKSFHASFQLG", "soluble on expression in E. coli": "soluble"}, {"sequence": "MSLVDQIKSYVAMRKYSIKRDEHGIVRLQLNNKDLFQFGPLDQGWWPDGLYTAPTDEALRYDIEKTKDFGFNMIRKHIKVEPARWYTYCDQIGLIVWQDMPSGDKSPEWQNRKYFEGTELTRSAESEETYRKEWKEVIDCLYSYPCIGTWVPFNEAWGQFKTQEIAEWTKQYDPSRLVNPASGGNHYTCGDMLDLHHYPGPEMFLYDAQRATVLGEYGGIGLVLKDHLWEPNRNWGYIQFNTSAEATAEYLKYAGILKDMISRGFSAAVYTQTTDVEVEVNGLMTYDRKVIKLDESKLKKMNTEICNSLKEGHHHHHH", "soluble on expression in E. coli": "not soluble"}, {"sequence": "MNQFYKRHFLRLLDFTPAEIIALLDLATELKKDKKSGCEQQKLVGKNIALIFEKDSTRTRCSFEVAAYDQGARVTYLGPGGSQIGHKESIKDTARVLGRMYDGIQYRGYGQRVVETLAEFAGVPVWNGLTDEFHPTQLLADLLTMREHLPNKSLNKMTLAYLGDTRNNMGNSLLEAAALVGMDLRLVAPKACWPEEAFVISCQALAQKTGGKITLTEDIAEGVNGADFLYTDVWVSMGEPKEVWQERINLLKPYQVNMRVLTLTGNPQVKFLHCLPAFHDDQTTIGKQMAEQYDLPGGMEVTEEVFESAHSIVFDQAENRLHTIKAVMVATMSKI", "soluble on expression in E. coli": "not soluble"}, {"sequence": "MTERILEVNDLHVSFDITAGEVQAVRGVDFYLNKGETLAIVGESGSGKSVTTKAITKLFQGDTGRIKKGEILFLGEDLAKKPENELIKLRGKDISMIFQDPMTSLNPTMQIGKQVMEPLIKHKNYSKAQAKKRALEILNLVGLPNAEKRFKAYPHQFSGGQRQRIVIATALACEPKVLIADEPTTALDVTMQAQILDLMKELQQKIDTAIIFITHDLGVVANIADRVAVMYGGQMVETGDVNEIFYDPKHPYTWGLLSSMPDLSTTNDTPLLAIPGAPPDLLHPPKGDAFARRSQYALDIDFKVEPPWFKVSPTHFVKSWLLDARAPKVELPELVKQRMKPMPNNYEKPLKVERVSFNEK", "soluble on expression in E. coli": "not soluble"}, {"sequence": "MITMPKLFIYHANQCNPKKCTSLKMAKMNKAILLKNPYKVPKNSLILNPYAEKALSPEDKEIVEKFGITALDCSWKEAELMFKKFKFKNQRSLPFLVACNPINYGKPCMLSTLEAFIAALYITNFKDEAWDLTSCFKWAETFIKVNYELLERYSNAKNSMEVVEIQQDFLRKLEHHHHHH", "soluble on expression in E. coli": "soluble"}, {"sequence": "MRILLIEDDMLIGDGIKTGLSKMGFSVDWFTQGRQGKEALYSAPYDAVILDLTLPGMDGRDILREWREKGQREPVLILTARDALAERVEGLRLGADDYLCKPFALIEVAARLEALMRRTNGQASNELRHGNVMLDPGKRIATLAGEPLTLKPKEFALLELLMRNAGRVLSRKLIEEKLYTWDEEVTSNAVEVHVHHLRRKLGSDFIRTVHGIGYTLGEK", "soluble on expression in E. coli": "soluble"}, {"sequence": "MGSDKIHHHHHHMASSGTEHDAMRARLVDVAQAIVEERGGAGLTLSELAARAGISQANLSRYFETREDLMEAIADYWFHPMVEIMEDVLASDLPPRRKMYEFFARRFVVMRRKWEADPVKLQTYIEVGNDYFEQVRSYIDLADHYLGEIIGEAMSDGAFSGLEVDETISLVNQMCAPYCALNTMTTFMERLSEDKLARIVDAVFDGLSAQDRGARSLTGLRAA", "soluble on expression in E. coli": "not soluble"}, {"sequence": "MRIHAFHRLYQYRQSISTKPFNARGCKVQRCPFCQVSEQHCLCELQPDIDSNVACMLIVSENEVFKPSNTGRLIADTVKETYVYQWNRTEPSQEMLDLLSNEDYLPVIVFPADYVDQPERLLDGLHTEHLHRTDGNSKKWLLIFIDGSWREARKIFRRSEFLQSLPVLSIEPECLSEYIMRRSENEQHLSTAEVATLVLKQAGENKASECLQLWFEAFRETYMLTKTRVKNDPNRPHLKRFKEWLKTESLEHHHHHH", "soluble on expression in E. coli": "not soluble"}, {"sequence": "MPLTPADVHNVAFSKPPIGKRGYNEDEVDQFLDLVEDTLAEIQEENDDLRQQIEELQSSPRAEGSKPAAAPAAVSSLDETKLRKEIEAKVAAEYRAKLADAQEATERAQAELKMAREEADSAKAAAKKAEEAARAAASAATKAQPVAAVAPVGTDGGSATADTHLQAAKVLSMAQEMADRLTAEADSNSKSMLSEARAAAEKQVSDAEAKAKTTLADARQKAEKQLADADARSKALVSDAEKKSAQTLSDANTRAEAQVRQAEEKANALQADAERKHTEIMATVKQQQNALESRISELRTFEREYRTRLKTLLQTQLDELESRGTSAPEDKNV", "soluble on expression in E. coli": "not soluble"}, {"sequence": "LESYLLDSERSKVIREMNETYTEFNYKETKKNLEGLASSLEHKYLVEASSLDEGLDEILTLHRLKVPGLLRISFLTTNLIELARETARDIMGRVRGWSKGNQVLRWLSCVFLHARNSLSK", "soluble on expression in E. coli": "not soluble"}, {"sequence": "MLTVKQIEAAKPKEKPYRLLDGNGLYLYVPVSGKKVWQLRYKIDGKEKILTVGKYPLMTLQEARDKAWTARKDISVGIDPVKAKKASSNNNSFSAIYKEWYEHKKQVWSVGYATELAKMFDDDILPIIGGLEIQDIEPMQLLEVIRRFEDRGAMERANKARRRCGEVFRYAIVTGRAKYNPAPDLADAMKGYRKKNFPFLPADQIPAFNKALATFSGSIVSLIATKVLRYTALRTKELRSMLWKNVDFENRIITIDASVMKGRKIHVVPMSDQVVELLTTLSSITKPVSEFVFAGRNDKKKPICENAVLLVIKQIGYEGLESGHGFRHEFSTIMNEHEWPADAIEVQLAHANGGSVRGIYNHAQYLDKRREMMQWWADWLDEKVE", "soluble on expression in E. coli": "soluble"}, {"sequence": "MGHHHHHHSHMKQTAESIRDRFMKLGIDVPVEDIESRLDELIKKFKVPSNEAQRSVTNYFLKKYSIPKNEFYVRQAEPQLTKIVDIVENGQWANLKAKVIQLWENTHESISQVGLLGDETGIIKFTIWKNAELPLLEQGESYLLRSVVVGEYNDRFQVQVNKNSSIEKLSEPIEVGGGDFTPAAREAELRNIADLTGNQWATVRGKVIQLWENSHESIEQAGLIGDETGVIKFTNWASSELPDMEEGRSYLLKNVVVNEWNGKAQVQLNRSSSIEELDEDIEVRTSMSSYFGAMVDIQTGSGLIKRCPECKRALVKGACAEHGKVKGEYDLRIKAVLDSGTSTQDALINRELTEELSGISLDSAIAMAADALDPGVVLDKLKHELVGRYYTITGHKLDRYILVESITPRTSLDRELLDQMLAEPIAQPEVE", "soluble on expression in E. coli": "soluble"}, {"sequence": "MSLTPWLSIVGISEEGWLALTPIAQQCILQADILVGSDRHFDLLPSLPGAEQWRWGSPFSATITQILERRGQSICILASGDPMCYGVGSLLAQRLPLTELQILPAPSAFSLACSRLGWALPEVETLSLCGRDPALLNALLYPGAKILALSADRSTPATIAEQLCQQGWGSSRLTVLEHLGGPKERKISEIAEHWSQPTIASLNTVAIECHARDRDLIVPPRLTGLPDAAYHHDGQLTKREVRAITLAALAPLPGQLLWDVGAGCGSIGIEWMRSDRRCRAIAIEQHPQRLQIITQNAIALGVPNLQVVAGSAPATLSGLPQPDAIFIGGGVTAPGVLDQCWQALPMGGRLVVNAVTLESEQVVLAGQQRWGGDLIRVAVQRAEPIGRFLGWKSLAPITQWTVKKTALEHHHHHH", "soluble on expression in E. coli": "soluble"}, {"sequence": "MAKIGLFFGSDTGTTRKIAKQIKDMFDDEVMAKPLNVNRADVADFMAYDFLILGTPTLGDGQLPGLSANAASESWEEFLPRIADQDFSGKTIALFGLGDQVTYPLEFVNALFFLHEFFSDRGANVVGRWPAKGYGFEDSLAVVEGEFLGLALDQDNQAALTPERLKGWLSLIAADFGLVLPA", "soluble on expression in E. coli": "soluble"}, {"sequence": "MSLGKEEEYRITNVKIFKDTPVWELALAVKNEKTRTIEKLAKENPELLNYQEPKYGATLLLWAVGMEKYKSAEALLKCGADPNIASTVDGMTPLYLAAGFSWIDNYAKKDPKFVKLLLKYNADPNITYGGNAIIEPGTSPLMNSIRCGIEKTKALVEAGAYINYKTKSGTTAAIKALLAGQNATLEALEYAHYLIVEKKAKVTDPYYPWLVYEENNIQELYPVDILRRWVYPLDSEEYRIKMEIVEEFARQGVNYWDTEIDKYTLEQIKKLYPDTWEEYIKRYEGHHHHHH", "soluble on expression in E. coli": "soluble"}, {"sequence": "MLKQLLEQATSNNGKARLYAFENTVELTNLIPPTVSYESGGNTLIVGPTAIIESAAAQLSQMNSLTLLSTDGEKGTNPELYYANSVQVSGFLGTFEVLIENHGSTNNLAKVAINSDCFDIVLDLCLNSCMSEEVPVPGYYPVGRGYPKLAEALEEIPTLMGTFDKPKFFRLDTDLCAHSSRGVKGCERCVDACPAGALSSEGSDKTGHRIEINPYLCQGVGTCATACPTEAIHYALPNPEDTQKFIERTLANYEQAGGLDPIVLICSSRHESYNVMALKALPDNVIPIVVEELPSVGIDTWFAALVNGATQVLFAASRFMPQTIIRVLNSEVGIAQELLDQLGIAKETIDILYLESLREGAPTLCTESFDLALGDLQGNKRQRLFTALDALSASRIPVENIVELPANAPYGTVSCESKDC", "soluble on expression in E. coli": "not soluble"}, {"sequence": "MIIYKDIFSNDELLSDAYDAKLVDDVIYEADCAMVNVGGDNIDIGANPSAEGGDDDVEEGAEMVNNVVHSFRLQQTAFDKKSFLTYIKGYMKAVKAKLQETNPEEVPKFEKGAQTYVKKVIGSFKDWEFFTGESMDPDAMVVMLNYREDGTTPFVAIWKHGIVEEKI", "soluble on expression in E. coli": "soluble"}, {"sequence": "SAARLLRGSLRVLGGHRAPRQLPAARCSHSGGEERLETPSAKKLTDIGIRRIFSPEHDIFRKSVRKFFQEEVIPHHSEWEKAGEVSREVWEKAGKQGLLGVNIAEHLGGIGGDLYSAAIVWEEQAYSNCSGPGFSIHSGIVMSYITNHGSEEQIKHFIPQMTAGKCIGAIAMTEPGAGSDLQGIKTNAKKDGSDWILNGSKVFISNGSLSDVVIVVAVTNHEAPSPAHGISLFLVENGMKGFIKGRKLHKMGLKAQDTAELFFEDIRLPASALLGEENKGFYYIMKELPQERLLIADVAISASEFMFEETRNYVKQRKAFGKTVAHLQTVQHKLAELKTHICVTRAFVDNCLQLHEAKRLDSATACMAKYWASELQNSVAYDCVQLHGGWGYMWEYPIAKAYVDARVQPIYGGTNEIMKELIAREIVFDK", "soluble on expression in E. coli": "soluble"}, {"sequence": "MSLDRGVQWVLMGAPGAWRHVFAERLSKLLEVPHISMGSLVRQELNPRSSLYKEIASAVNERKLVPKSVVFALLSKRLEEGYARGETGFILHGIPRTRFQAETLDQIAQIDLVVNLKCSEDHLVNRNETALPQQEFLGSMLHSPVAINARRESVGVYAQEVEEYYRKQRKLLDFHVGGATSADTWQGLLAALHLKQVNLTTSQKLTEGHHHHHH", "soluble on expression in E. coli": "not soluble"}]}]}
